Assay results published in US20210355180A1.

Key:
[1] = molecular target: N-terminally biotinylated human Aβ1-40 peptide (human); test: ELISA, ABD periplasm captured on anti-ABD, 2 nM biotinylated hAβ1-40
[2] = molecular target: N-terminally biotinylated human Aβ1-40 peptide (human); test: SPR (Biacore 2000), periplasm diluted 15x over hAβ1-40 surface (blank control)

N-terminally biotinylated human Aβ1-40 peptide (human), sequence (peptide, as listed by the source): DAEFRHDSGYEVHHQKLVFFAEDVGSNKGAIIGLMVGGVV

ABD (albumin binding domain GA3 from streptococcal Protein G), periplasm control (from UniProt P19909 254-299)
ELISA response (absorbance 450 nm) [1]: 0.063 AU
Response RU [2]: 2 RU
